Consider one molecule from patent US20130136756A1.

As usually defined, the Kd is the concentration at which binding is half-saturated. Low readings indicate tighter binding, high ones weaker binding.

Assay [1] has as its target 24P4C12 (human) (UniProt Q53GD3). In words: FACS on LNCaP cells, ADC at 0.011 nM.
Assay [2] shares this target. Briefly: FACS on LNCaP cells, ADC at 0.033 nM.
Assay [3] shares this target. In words: FACS on LNCaP cells, ADC at 0.098 nM.
Assay [4] has the same target. In words: FACS on LNCaP cells, ADC at 0.293 nM.
Assay [5] has the same target. Briefly: FACS on LNCaP cells, ADC at 0.878 nM.
Assay [6] shares this target. Briefly: FACS on LNCaP cells, ADC at 2.634 nM.
Assay [7] shares this target. Briefly: FACS on LNCaP cells, ADC at 7.901 nM.
The target is the same in assay [8]. In words: FACS on LNCaP cells, ADC at 23.704 nM.
For assay [9] the target is unchanged. Briefly: FACS on LNCaP cells, ADC at 71.111 nM.
Assay [10] shares this target. In words: FACS on LNCaP cells, ADC at 106.667 nM.
The target is the same in assay [11]. Briefly: FACS on LNCaP cells, ADC at 160.000 nM.
For assay [12] the target is unchanged. Briefly: FACS saturation binding on LNCaP cells (endogenous 24P4C12), one site fit.

Sequence of UniProt Q53GD3 (Q53GD3 whole entry): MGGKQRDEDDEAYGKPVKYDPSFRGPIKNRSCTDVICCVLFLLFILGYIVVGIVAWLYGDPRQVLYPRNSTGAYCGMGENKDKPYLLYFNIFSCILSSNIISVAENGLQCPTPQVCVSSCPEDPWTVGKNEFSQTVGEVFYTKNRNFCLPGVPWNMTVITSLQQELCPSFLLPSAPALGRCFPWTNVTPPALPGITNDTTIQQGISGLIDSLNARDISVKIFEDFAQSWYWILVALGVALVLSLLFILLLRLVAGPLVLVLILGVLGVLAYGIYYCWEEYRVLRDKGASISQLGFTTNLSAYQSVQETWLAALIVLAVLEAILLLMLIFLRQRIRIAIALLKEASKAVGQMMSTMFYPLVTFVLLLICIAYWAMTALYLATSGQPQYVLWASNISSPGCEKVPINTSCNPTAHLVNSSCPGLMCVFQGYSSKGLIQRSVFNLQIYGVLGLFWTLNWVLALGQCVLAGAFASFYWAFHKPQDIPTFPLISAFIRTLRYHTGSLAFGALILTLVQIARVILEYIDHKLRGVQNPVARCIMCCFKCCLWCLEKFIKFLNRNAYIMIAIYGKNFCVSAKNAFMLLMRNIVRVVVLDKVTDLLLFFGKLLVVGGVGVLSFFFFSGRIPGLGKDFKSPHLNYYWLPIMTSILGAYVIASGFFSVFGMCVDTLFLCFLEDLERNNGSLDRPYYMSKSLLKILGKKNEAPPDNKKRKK

B1: Ha5-1(5)2.1vcMMAE (protein)
heavy: QVQLVESGGGVVQPGRSLRLSCAASGFTFSSYGMHWVRQAPGKGLEWVAVMSYDGSKKFYTDSVKGRFTISRDNSKNTLYLQMNSLRAEDTAVYYCARDGGDYVRYHYYGMDVWGQGTTVTVSSASTKGPSVFPLAPCSRSTSESTAALGCLVKDYFPEPVTVSWNSGALTSGVHTFPAVLQSSGLYSLSSVVTVPSSNFGTQTYTCNVDHKPSNTKVDKTVERKCCVECPPCPAPPVAGPSVFLFPPKPKDTLMISRTPEVTCVVVDVSHEDPEVQFNWYVDGVEVHNAKTKPREEQFNSTFRVVSVLTVVHQDWLNGKEYKCKVSNKGLPAPIEKTISKTKGQPREPQVYTLPPSREEMTKNQVSLTCLVKGFYPSDIAVEWESNGQPENNYKTTPPMLDSDGSFFLYSKLTVDKSRWQQGNVFSCSVMHEALHNHYTQKSLSLSPGK
light: DIQMTQSPSTLSASIGDRVTITCRASQGISYYLAWYQQKPGKIPKLLIYDTSSLQSGVPSRFSGSRSGTDLSLTISSLQPEDVATYYCQRYDSAPLTFGGGTKVEIKRTVAAPSVFIFPPSDEQLKSGTASVVCLLNNFYPREAKVQWKVDNALQSGNSQESVTEQDSKDSTYSLSSTLTLSKADYEKHKVYACEVTHQGLSSPVTKSFNRGEC
modifications: vcMMAE (Val-Cit linker, monomethyl auristatin E) on cysteine thiols after partial TCEP reduction; p about 3.6 per antibody; positions not given
For the molecule B1, the MFI came out at 7 MFI with 24P4C12 (human) [1]; 9 MFI with 24P4C12 (human) [2]; 15 MFI with 24P4C12 (human) [3]; 28 MFI with 24P4C12 (human) [4]; 54 MFI with 24P4C12 (human) [5]; 70 MFI in the assay with 24P4C12 (human) [6]. The MFI worked out at 86 MFI with 24P4C12 (human) [7]; 97 MFI with 24P4C12 (human) [8]; 108 MFI with 24P4C12 (human) [9]; 114 MFI with 24P4C12 (human) [10]; 116 MFI in the assay with 24P4C12 (human) [11]. This molecule displayed a dissociation constant (Kd) in the assay with 24P4C12 (human) [12] of 1.05 nM.
